Molecular target: Fas receptor (human) (UniProt P25445)
Experiment: cell-based or functional assay

UniProt P25445, sequence (P25445 26-335): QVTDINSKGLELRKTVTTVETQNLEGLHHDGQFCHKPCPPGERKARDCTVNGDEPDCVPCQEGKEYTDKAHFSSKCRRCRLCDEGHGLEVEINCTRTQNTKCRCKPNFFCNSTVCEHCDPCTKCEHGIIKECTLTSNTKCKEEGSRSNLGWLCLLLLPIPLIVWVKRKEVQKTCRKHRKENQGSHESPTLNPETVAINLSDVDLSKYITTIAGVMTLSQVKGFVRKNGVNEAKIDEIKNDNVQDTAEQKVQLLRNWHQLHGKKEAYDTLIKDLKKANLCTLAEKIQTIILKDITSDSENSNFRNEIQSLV

| Substance | IC50 (ng/ml), PESMTS survival assay, ARH-77 cells (multiple myeloma) [ng/mL] | IC50 (ng/ml), PESMTS survival assay, DOHH2 cells (follicular lymphoma) [ng/mL] | IC50 (ng/ml), PESMTS survival assay, HL60 (AML-M3) cells [ng/mL] | IC50 (ng/ml), PESMTS survival assay, Jurkat cells (acute T lymphoblastic leukemia) [ng/mL] | IC50 (ng/ml), PESMTS survival assay, K562 cells (chronic myeloid leukaemia) [ng/mL] | IC50 (ng/ml), PESMTS survival assay, NB4 (AML-M3) cells [ng/mL] | IC50 (ng/ml), PESMTS survival assay, Namalwa (ALL-L3) cells [ng/mL] | IC50 (ng/ml), PESMTS survival assay, OPM2 cells (multiple myeloma) [ng/mL] | IC50 (ng/ml), PESMTS survival assay, RPMI-8226 cells (multiple myeloma) [ng/mL] | IC50 (ng/ml), PESMTS survival assay, Raji (ALL-L3) cells [ng/mL] | IC50 (ng/ml), PESMTS survival assay, SC-I cells (follicular lymphoma) [ng/mL] | IC50 (ng/ml), PESMTS survival assay, U266 cells (multiple myeloma) [ng/mL] |
| --- | --- | --- | --- | --- | --- | --- | --- | --- | --- | --- | --- | --- |
| MegaFasL (fusion polypeptide m or hACRP30:hFasL) (from UniProt P48023 103-281) (ligand) | 10.4 | 1.17 | 213 | 0.06 | > 10000 | 16 | 57 | 2.19 | 3.57 | 5.6 | > 10000 | 6.2 |
| CH11 (antibody) | > 10000 | > 10000 | > 10000 | 6.58 | > 10000 | > 10000 | > 10000 |  | > 10000 | 15.8 | > 10000 | > 10000 |

— patent US20080241109A1
